Reference: US20240352134A1

Tests used:
[1] = target: human CCR8 (human) (UniProt P51685); test: cell-based or functional assay
[2] = target: human CCR8 (human) (UniProt P51685); test: binding affinity EC50, comparison of Table 12 (FACS on CCR8-expressing cells)

Sequence of human CCR8 (human) (P51685 whole entry): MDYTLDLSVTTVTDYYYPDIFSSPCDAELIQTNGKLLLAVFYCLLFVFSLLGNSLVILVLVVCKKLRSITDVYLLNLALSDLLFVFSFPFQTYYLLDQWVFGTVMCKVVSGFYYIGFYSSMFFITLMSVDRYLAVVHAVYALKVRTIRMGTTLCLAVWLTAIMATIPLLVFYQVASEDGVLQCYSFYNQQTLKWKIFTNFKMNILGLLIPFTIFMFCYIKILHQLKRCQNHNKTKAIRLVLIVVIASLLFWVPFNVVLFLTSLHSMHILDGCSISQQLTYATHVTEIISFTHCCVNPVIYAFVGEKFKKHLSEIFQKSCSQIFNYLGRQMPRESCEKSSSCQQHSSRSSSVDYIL

Signal block Ca2+ [1] | EC50 [2] | Substance
4.34 nM | 0.29 nM | GS-1811 (antibody)
– | 0.243 nM | S-531011 (antibody)
